Assay results published in the RNAGym collection of RNA variant scans (doi:10.1073/pnas.2313332121).
Variants at the floor of the assay were thinned out.

B1: TPR 5TU (parent)
chain: GGAUCUUCUCGAUCUAACAAAAAAGACAAAUCUGCCACAAAGCUUGAGAGCAUCUUCGGAUGCAGAGGCGGCAGCCUUCGGUGGCGCGAUAGCGCCAACGUUCUCAACUAUGACACGCAAAACGCGUGCUCCGUUGAAUGGAGUUUAUCAUG

Variants of: B1
Assay: polymerase ribozyme fitness, log enrichment relative to wild type (log ratio); higher = more active; in vitro selection for triplet polymerase activity
How it was run: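 Frozen incubation at −7 °C formed the core of a single, triplicate in vitro selection round applied to PCR-built, transcribed mutant libraries of each subunit of a heterodimeric triplet polymerase ribozyme. Extended constructs were gel-excised, captured with streptavidin beads and amplified by RT-PCR, and input and output libraries were Illumina-sequenced with a filter of ≥10 input reads and ≥1 read per output. Fitness is the logarithm of genotype enrichment relative to wild-type enrichment, with inverse-variance-weighted replicate averaging, and the logarithm is base 2.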

| Variant | polymerase ribozyme fitness (log ratio) |
| --- | --- |
| GGAUCUUCUCGAUCUAACAAAAAAGACAAAUCUGCCACAAAGCUUGAGAGCAUCUGCGGAUGCAGCGGCGGCAGCCUUCGAUGGCGUGAUAGCGCCAACGUUCUCAACUAUGACACACAAAACGCGUGCUCCGUUGAAUGGAGUUUAUCAUG [U56G A66C G81A C87U G117A] | ≤ -4.2 |
| GGAUCUUCUCGAUCUAACAAAAAAGACAAAUCUGCCACAAAGCUUGAGAGCAUCUCCGGAUGCAGAGGCGGCAGCCUGCGGUGGUGCGGUAGCGCCAACGUUCUCAACUAUGACACGCAAAACGCGUGCUCCGUUGAAUGGAGUUUAUCAUG [U56C U78G C85U A89G] | ≤ -4.2 |
| GGAUCUUCUCGAUCUAACAAAAAAGACAAAUCUGCCACAAAGCUUGAGAGCAUCUGCGGAUGCAGAGGCGGCAGCCUUCGGUUGCGCGAUAGCGCCAACGUUCUCAACUAUGACACGCAAAACGUGUGCUCCGUUGAAUGGAGUUUAUCAUG [U56G G83U C125U] | -1.82 |
| GGAUCUUCUCGAUCUAACAAAAAAGACAAAUCUGCCACAAAGCUUGAGAGCAUCUGCGGAUGCAGAGGCGGCAGCCUUCGGUGGCGCGAUGGCGCCAACGUUCUCAACUAUGACACGCAAAACGCGUGCUCCGUUGAAUGGAGUUUAUCAUG [U56G A91G] | -3.24 |
| GGAUCUUCUCGAUCUAACAAAAAAGACAAAUCUGCCACAAAGCUUGAGAGCAUCUGCGGAUGCACACGCGGCAGCCUUCGGUGGAGCGAUAGGGCCAACGUUCUCAACUAUGACACGUAAAACGCGUGCUCCGUUGAAUGGAGUUUAUAAUG [U56G G65C G67C C85A C93G C118U C149A] | ≤ -4.2 |
| GGAUCUUCUCGAUCUAACAAAAAAGACAAAUCUGCCACAAAGCUUGAGAGCAUCUGCGGAUGCAGAGGCGGCAGCCUUCGGUAGCGGGAUAGCGCCAACGUUCUCAACUAUGACAGGCAAAACGCGUGCUCCGUUGAAUCGAGUUUAUCAUG [U56G G83A C87G C116G G140C] | ≤ -4.2 |
| GGAUCUUCUCGAUCUAACAAAAAAGACAAAUCUGCCACAAAGCUUGAGAGCAUCUGCGGAUGCUGAGGCGGCAGCCUUCGAUGGCGCAAUAGCGCCAACGUUCUCAACUAUGAAUCGCAAAACGCGUGCUCCGUUGAAUGUAGUUUAUCAUG [U56G A64U G81A G88A C114A A115U G141U] | ≤ -4.2 |
| GGAUCUUCUCGAUCUAACAAAAAAGACAAAUCUGCCACAAAGCUUGAGAGCAUCUGCGGAUGCAGAGGCGGCAGCCUUCGGUGCCGCGAUAGCGCCAACGUUCUCAACUAUGACAUGCAAAACGCGUGCUCCGUUGAAUGGAGUUUAUCAUG [U56G G84C C116U] | -4.17 |
| GGAUCUUCUCGAUCUAACAAAAAAGACAAAUCUGCCACAAAGCUUGAGAGCAUCUGCGUAUGCAGAGGCGGCAGCCUUCGGUGGCGAGAUAGCGCCAACGUUCUCAACUAUGACACGCAAAACGCGUGCUCCGUUGAAUGGAGUUUAUCAUG [U56G G59U C87A] | ≤ -4.2 |
| GGAUCUUCUCGAUCUAACAAAAAAGACAAAUCUGCCACAAAGCUUGAGAGCAUCUGCGAAUGCAGAGGCGGCAGCCUUCGUUGGCGCGCUAUCGCCAACGUUCUCAACUAUGACACGCAAAACGCGUGCUCCGUUGAAAGGAGUUUAUCAUG [U56G G59A G81U A89C G92U U139A] | ≤ -4.2 |
| GGAUCUUCUCGAUCUAACAAAAAAGACAAAUCUGCCACAAAGCUUGAGAGCAUCUGCGGAUGCAGAGGCGGCAGCCUUCGGUGGCGCGAUAGCGCCAACGUUCUCAACUAUGACACGCAAAACGCGUGCUCCGUUGAAUGGUGUUUAUCAUG [U56G A142U] | -0.88 |
| GGAUCUUCUCGAUCUAACAAAAAAGACAAAUCUGCCACAAAGCUUGAGAGCAUCUCCGGAUGCAGAGGCGGCAGCCUUCGGUGGGGCGAUAGCGCCAACGUUCUCAACUAUGACACGCAAAACGCGUGCUCCGUCGAAUGGUGUUUAUCAUA [U56C C85G U135C A142U G152A] | ≤ -4.2 |
| GGAUCUUCUCGAUCUAACAAAAAAGACAAAUCUGCCACAAAGCUUGAGAGCAUCUCCGGAUGCAGAGGCGGCAGCCUUCGGUGGCGCGAUAGUGCCAACGUUCUCAACUAUGACACGCAAAACGCGUGCUCCGUUGAAUGGAGUUUAUCAUG [U56C C93U] | -1.53 |
| GGAUCUUCUCGAUCUAACAAAAAAGACAAAUCUGCCACAAAGCUUGAGAGCAUCUGCGGAUGCAGAGGCGGUAGCCUUCGGUGGCGCGAUAGCGCCAACGUUCUCAACUAUGACACGCAAAACGCGUGCUCCGUUGAAUGGAGUUUAUCAUG [U56G C72U] | -0.106 |
| GGAUCUUCUCGAUCUAACAAAAAAGACAAAUCUGCCACAAAGCUUGAGAGCAUCUCCUGAUGCAGAGGCGGCAGCCUUCGGUGGCGCGAUAGCGCCAACGUUCUCAACUAUGAUACGCUAAACGCGUGCUCCGUUGAAUGGAGUUUAUCAUG [U56C G58U C114U A119U] | -1.67 |
| GGAUCUUCUCGAUCUAACAAAAAAGACAAAUCUGCCACAAAGCUUGAGAGCAUCUGCGGAUGCAGAGGCGGCAGCCUUCGGUGACGCGAUGGCGCCAACGUUCUCAACUAUGACGCGCAAAACGCGUGCUCCGUUGAAUGGAGUUUAUCAUG [U56G G84A A91G A115G] | -4.1 |
| GGAUCUUCUCGAUCUAACAAAAAAGACAAAUCUGCCACAAAGCUUGAGAGCAUCUGCGGAUGCAGAGGCGGCAGCCUUCGGUGUCGCGAUAGCGCCAACGUUCUCAACUAUGACACGCAAAACGCGUGCUCCGUUGAAUGGAGUUUAUCAUG [U56G G84U] | -2.16 |
| GGAUCUUCUCGAUCUAACAAAAAAGACAAAUCUGCCACAAAGCUUGAGAGCAUCUCCGGAUGCAGAGGCGGCAGCCUUCGGUGGCGCGAUAGUGCCAACGUUCUCAACUAUGAGACGCGAAACGCGUGCUCCGUUGAAUGGAGUUUAUCAUG [U56C C93U C114G A119G] | -3.79 |
| GGAUCUUCUCGAUCUAACAAAAAAGACAAAUCUGCCACAAAGCUUGAGAGCAUCUCCGGAUGCAGAGGCGGCAGCCUUCGGUGGCGCGAUAGCGCCAACGUUCUCAACUAUGACACGCAAAACGCGUGCUCCUUUGAAUGGAGUUUAUCAUG [U56C G133U] | -4.01 |
